In the supplement of paper PMC12855868:

B1: library; numbered along this chain (parent)
chain: MAAAGGARLLRAASAVLGGPAGRWLHHAGSRAGSSGLLRNRGPGGSAEASRSLSVSARARSSSEDKITVHFINRDGETLTTKGKVGDSLLDVVVENNLDIDGFGACEGTLACSTCHLIFEDHIYEKLDAITDEENDMLDLAYGLTDRSRLGCQICLTKSMDNMTVRVPETVADARQSIDVGKTS

Variants of: B1
Assay: scaled log2 fold change in cell abundance, elesclomol vs control (0 = silent mean, 1 = nonsense mean) (scaled log2 ratio); higher = higher viability under elesclomol (loss of FDX1 cuproptosis function)
Conditions: glucose 10 mM
[1] = with ABC1 FDX1 KO, elesclomol 5 nM, 14 days
[2] = with HEK293T FDX1 KO, elesclomol 40 nM, 11 days
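Further: variant abundance is its share of total variant reads in each endpoint sample, from next-generation sequencing of the integrated ORF PCR-amplified out of genomic DNA.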

For MAAAGGARLLRAASAVLGGPAGRWLHHAGSRAGSSGLLRNRGPGGSAEASRSLSVSARARSSSEDKITVHFINRDGETLTTKGKVGDSLLDVVVENNLDIDGFGACEGTLACSTAHLIFEDHIYEKLDAITDEENDMLDLAYGLTDRSRLGCQICLTKSMDNMTVRVPETVADARQSIDVGKTS [C115A], the “scaled log2 fold change” value [1] was 1.07 and the “scaled log2 fold change” value [2] was 1.02.

For MAAAGGARLLRAASAVLGGPAGRWLHHAGSRAGSSGLLRNRGPGGSAEASRSLSVSARARSSSEDKITVHFINRDGETLTTKGKVGDSLLDVVVENNLDIDGFGACEGTLACSTDHLIFEDHIYEKLDAITDEENDMLDLAYGLTDRSRLGCQICLTKSMDNMTVRVPETVADARQSIDVGKTS [C115D], the “scaled log2 fold change” value [1] was 1.16 and the “scaled log2 fold change” value [2] was 0.979.

In the case of MAAAGGARLLRAASAVLGGPAGRWLHHAGSRAGSSGLLRNRGPGGSAEASRSLSVSARARSSSEDKITVHFINRDGETLTTKGKVGDSLLDVVVENNLDIDGFGACEGTLACSTEHLIFEDHIYEKLDAITDEENDMLDLAYGLTDRSRLGCQICLTKSMDNMTVRVPETVADARQSIDVGKTS [C115E], the “scaled log2 fold change” value [1] is reported as 1.27 and the “scaled log2 fold change” value [2] is reported as 0.99.

With MAAAGGARLLRAASAVLGGPAGRWLHHAGSRAGSSGLLRNRGPGGSAEASRSLSVSARARSSSEDKITVHFINRDGETLTTKGKVGDSLLDVVVENNLDIDGFGACEGTLACSMCHLIFEDHIYEKLDAITDEENDMLDLAYGLTDRSRLGCQICLTKSMDNMTVRVPETVADARQSIDVGKTS [T114M] the “scaled log2 fold change” value [1] was 0.114 and the “scaled log2 fold change” value [2] was 0.455.

With MAAAGGARLLRAASAVLGGPAGRWLHHAGSRAGSSGLLRNRGPGGSAEASRSLSVSARARSSSEDKITVHFINRDGETLTTKGKVGDSLLDVVVENNLDIDGFGACEGTLACSLCHLIFEDHIYEKLDAITDEENDMLDLAYGLTDRSRLGCQICLTKSMDNMTVRVPETVADARQSIDVGKTS [T114L] the “scaled log2 fold change” value [1] was 0.463 and the “scaled log2 fold change” value [2] was 0.0445.

With MAAAGGARLLRAASAVLGGPAGRWLHHAGSRAGSSGLLRNRGPGGSAEASRSLSVSARARSSSEDKITVHFINRDGETLTTKGKVGDSLLDVVVENNLDIDGFGACEGTLACSRCHLIFEDHIYEKLDAITDEENDMLDLAYGLTDRSRLGCQICLTKSMDNMTVRVPETVADARQSIDVGKTS [T114R] the “scaled log2 fold change” value [1] was 0.517 and the “scaled log2 fold change” value [2] was 0.411.

With MAAAGGARLLRAASAVLGGPAGRWLHHAGSRAGSSGLLRNRGPGGSAEASRSLSVSARARSSSEDKITVHFINRDGETLTTKGKVGDSLLDVVVENNLDIDGFGACEGTLACSQCHLIFEDHIYEKLDAITDEENDMLDLAYGLTDRSRLGCQICLTKSMDNMTVRVPETVADARQSIDVGKTS [T114Q] the “scaled log2 fold change” value [1] was -0.112 and the “scaled log2 fold change” value [2] was 0.0599.

For MAAAGGARLLRAASAVLGGPAGRWLHHAGSRAGSSGLLRNRGPGGSAEASRSLSVSARARSSSEDKITVHFINRDGETLTTKGKVGDSLLDVVVENNLDIDGFGACEGTLACSPCHLIFEDHIYEKLDAITDEENDMLDLAYGLTDRSRLGCQICLTKSMDNMTVRVPETVADARQSIDVGKTS [T114P], the “scaled log2 fold change” value [1] was 1.01 and the “scaled log2 fold change” value [2] was 0.956.

In the case of MAAAGGARLLRAASAVLGGPAGRWLHHAGSRAGSSGLLRNRGPGGSAEASRSLSVSARARSSSEDKITVHFINRDGETLTTKGKVGDSLLDVVVENNLDIDGFGACEGTLACSVCHLIFEDHIYEKLDAITDEENDMLDLAYGLTDRSRLGCQICLTKSMDNMTVRVPETVADARQSIDVGKTS [T114V], the “scaled log2 fold change” value [1] is reported as 0.906 and the “scaled log2 fold change” value [2] is reported as 0.208.

In the case of MAAAGGARLLRAASAVLGGPAGRWLHHAGSRAGSSGLLRNRGPGGSAEASRSLSVSARARSSSEDKITVHFINRDGETLTTKGKVGDSLLDVVVENNLDIDGFGACEGTLACSHCHLIFEDHIYEKLDAITDEENDMLDLAYGLTDRSRLGCQICLTKSMDNMTVRVPETVADARQSIDVGKTS [T114H], the “scaled log2 fold change” value [1] is reported as -0.00732 and the “scaled log2 fold change” value [2] is reported as 0.334.

With MAAAGGARLLRAASAVLGGPAGRWLHHAGSRAGSSGLLRNRGPGGSAEASRSLSVSARARSSSEDKITVHFINRDGETLTTKGKVGDSLLDVVVENNLDIDGFGACEGTLACSNCHLIFEDHIYEKLDAITDEENDMLDLAYGLTDRSRLGCQICLTKSMDNMTVRVPETVADARQSIDVGKTS [T114N] the “scaled log2 fold change” value [1] was 0.0748 and the “scaled log2 fold change” value [2] was 1.03.

With MAAAGGARLLRAASAVLGGPAGRWLHHAGSRAGSSGLLRNRGPGGSAEASRSLSVSARARSSSEDKITVHFINRDGETLTTKGKVGDSLLDVVVENNLDIDGFGACEGTLACSSCHLIFEDHIYEKLDAITDEENDMLDLAYGLTDRSRLGCQICLTKSMDNMTVRVPETVADARQSIDVGKTS [T114S] the “scaled log2 fold change” value [1] was -0.416 and the “scaled log2 fold change” value [2] was 0.997.

MAAAGGARLLRAASAVLGGPAGRWLHHAGSRAGSSGLLRNRGPGGSAEASRSLSVSARARSSSEDKITVHFINRDGETLTTKGKVGDSLLDVVVENNLDIDGFGACEGTLACSYCHLIFEDHIYEKLDAITDEENDMLDLAYGLTDRSRLGCQICLTKSMDNMTVRVPETVADARQSIDVGKTS [T114Y] was tested, and the “scaled log2 fold change” value [1] was 0.838 and the “scaled log2 fold change” value [2] was 0.412.

In the case of MAAAGGARLLRAASAVLGGPAGRWLHHAGSRAGSSGLLRNRGPGGSAEASRSLSVSARARSSSEDKITVHFINRDGETLTTKGKVGDSLLDVVVENNLDIDGFGACEGTLACSWCHLIFEDHIYEKLDAITDEENDMLDLAYGLTDRSRLGCQICLTKSMDNMTVRVPETVADARQSIDVGKTS [T114W], the “scaled log2 fold change” value [1] is reported as 1.03 and the “scaled log2 fold change” value [2] is reported as 0.814.

For MAAAGGARLLRAASAVLGGPAGRWLHHAGSRAGSSGLLRNRGPGGSAEASRSLSVSARARSSSEDKITVHFINRDGETLTTKGKVGDSLLDVVVENNLDIDGFGACEGTLACSKCHLIFEDHIYEKLDAITDEENDMLDLAYGLTDRSRLGCQICLTKSMDNMTVRVPETVADARQSIDVGKTS [T114K], the “scaled log2 fold change” value [1] was 0.766 and the “scaled log2 fold change” value [2] was 0.199.

MAAAGGARLLRAASAVLGGPAGRWLHHAGSRAGSSGLLRNRGPGGSAEASRSLSVSARARSSSEDKITVHFINRDGETLTTKGKVGDSLLDVVVENNLDIDGFGACEGTLACSICHLIFEDHIYEKLDAITDEENDMLDLAYGLTDRSRLGCQICLTKSMDNMTVRVPETVADARQSIDVGKTS [T114I] was tested, and the “scaled log2 fold change” value [1] was 1.02 and the “scaled log2 fold change” value [2] was 1.01.
